How the values were obtained:
[1] = biological target: FLAG-tagged WAVE2 stably expressed in A431 cells (UniProt Q9Y6W5); experiment: co-IP
[2] = biological target: Recombinant full-length WAVE2 tagged with GST at its COOH terminus (UniProt Q9Y6W5); experiment: dual polarization interferometry
Sequence of Recombinant full-length WAVE2 tagged with GST at its COOH terminus (Q9Y6W5 whole entry): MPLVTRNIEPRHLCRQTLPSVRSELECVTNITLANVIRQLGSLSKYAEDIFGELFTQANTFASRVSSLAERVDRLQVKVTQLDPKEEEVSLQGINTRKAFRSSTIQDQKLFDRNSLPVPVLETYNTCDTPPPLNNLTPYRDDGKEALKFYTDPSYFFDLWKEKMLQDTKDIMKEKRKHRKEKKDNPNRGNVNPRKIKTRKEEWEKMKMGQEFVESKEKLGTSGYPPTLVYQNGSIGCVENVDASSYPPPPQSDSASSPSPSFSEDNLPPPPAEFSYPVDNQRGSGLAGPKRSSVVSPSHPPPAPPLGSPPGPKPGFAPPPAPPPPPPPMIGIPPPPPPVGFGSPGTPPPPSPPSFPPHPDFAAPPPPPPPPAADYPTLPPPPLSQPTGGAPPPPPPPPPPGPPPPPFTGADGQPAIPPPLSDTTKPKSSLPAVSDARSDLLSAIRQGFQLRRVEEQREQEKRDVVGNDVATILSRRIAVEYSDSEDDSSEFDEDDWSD

Sequence of FLAG-tagged WAVE2 stably expressed in A431 cells (Q9Y6W5 whole entry): as above

| Substance | molar ratio of IRSp53 to WAVE2 in the purified complex [1] | Kd [2] [µM] |
| --- | --- | --- |
| IRSp53, endogenous in A431 cells (from UniProt Q9UQB8 1-552) (natural protein) | 0.0005 |  |
| SH3 domain of IRSp53 (aa 363–521) (from UniProt Q9UQB8 363-521) (domain or fragment) |  | 5.7 |
